In patent publication US20250034594A1, “RNA-GUIDED GENOME RECOMBINEERING AT KILOBASE SCALE” (THE BOARD OF TRUSTEES OF THE LELAND STANFORD JUNIOR …, priority 2021, published 2025):

B1: SSAP_220: SEQ ID NO: 389; Amycolatopsis circi (protein, listed as Amycolatopsis circi)
chain: ISQTVTTAVAQQKDSSPAALVRKYRTDFATVLPSHIKPETWLRIATGALRRSPQLANAAKRNPSSLLVALLEAARKGLEPGTEQFYLVPRKGKNGPEVLGITGYQGEVELMYRAGAVSSVKVEVVREHDTFAYNPGEHDRPVHEIDWRADRGDLVLTYAYAVMRDGATSNVVVLSADDIAVILKKADGADSPFSPWQWNPKAMWLKSAARQLAKWVPTSAEYVRLPDVPLESLPPAKPLDLPRVDDVVDAEIVEDWPTAPDDTADGAR
B2: SSAP_210: SEQ ID NO: 379; Rufibacter latericius (protein, listed as Rufibacter latericius)
chain: SNQLQVAREQVISAQKSFKNVPNNKLDFEREAGFAMQMIQSNPFLASMDANSIRNCIVNVALTGLTLNPVLKLAYLVPRKGKLILDPSYMGLINVLVTSGAAKKIEADVVCENDFFDYEKGTNGFIKHKPSLSSRGEIIAAYAIAHLPNGEVQFEIMNREELEKVRKSSEAAKKGSSPYDGWASEMMRKAPIRRLFKYLPKHNIPDQVINTLSLDEQNNGVDFSAQKQEAFKGKAADFFEDEPANTVDADYTDMSHEEADNELAA
B3: SSAP_173: SEQ ID NO: 342; Tyzzerella nexilis (protein, listed as Tyzzerella nexilis)
chain: AGVKEELAKKAESTKGETKLTKSMSIADLIKAMEPEIKKALPEVITPERFTRMALSALNTTPKLRECTQMSFLAALMNAAQLGLEPNTPLGQAYLIPYNNKGVMECQFQIGYKGLIDLSYRNPQMQIISAQAVYENDDFSYELGLNPKLEHCPTLGERGEVRLFYGFFKLVNGGFGFEVMSKTAMDEYAKEYSKAFDSSFSPWKSNYIGMAKKTVIKQALKYAPLKTDFRKALSNDETIKTELSDDMSDIHGEEIWDVEYQEKTA
B4: SSAP_288: SEQ ID NO: 457; Clostridium thermobutyricum (protein, listed as Clostridium thermobutyricum)
chain: QSTGDIVFPQNYNYSNALKSAQLILAETVDRNKVPVLQSCSKPSICNALLDMVIQGLSPAKKQCYFVPYGGKLQLMKSYLGNIAATKRLKGVKDVFANVIYEGDVFEYKLNLNTGLIEIEKHEQKFENISKKILGAYAVVVRENQNNYVEVMNIEQIKNAWNQGAAKGNSQAHKNFAEEMAKKTVINRACKRFVNTSDDSDTLIESINRTNEYKEEDIIETTKSEVGEEIKENANTENLGLEDTEVVEAEVIENIEFEGDK
B5: SSAP_190: SEQ ID NO: 359; Microbacterium laevaniformans OR221 (protein)
chain: TDLSTVAAAAKQNPTMKDLVEAQLPAIERQLGGTMNSDAFVRAVLSEITKSPDLMQADPKTLLGGVMLAAQLRLEIGSGLGEFYLTPRKDHGRMICLPIVGFQGMVKLALRSEFVTNVQAFIVREGDDFTYGANAERGMFYDWTPKDFEEKRPMVGVVATARMKQGGTTWAYLTREQVEDRRPSYWQKTPWGSHPDEMAKKTAVRALAKYLPKATDLGRAIEADEQKVQHVKGLDEVTVTRLDDEPETVVVQETTDAWAATPVAEVQP
modifications: Microbacterium laevaniformans
notes: Microbacterium laevaniformans OR221
B6: SSAP_192: SEQ ID NO: 361; Streptococcus pyogenes (protein)
chain: SDLSVAAAAAKTQPTMKDLVEAQLPAIERQLGGAMNSAAFVRAVLSEIGKSPDLMAADPKTLLGGVMLAAQLRLEIGSGLGEFYLTPRKERGRQICLPIIGYQGLIKLALRSEFVMNVQAFLVRQGDQFSYGANAERGMFYDWVPQDFEETRDWIGVVATARMRSGGTTWVYLTRTQVIDRRPSYWNSTPWKTNEDEMVKKTAVRALAKFLPKSTDLGRALEADEAKVQTLRGLDEVEVTRLDDEADTVVVQEQNPMSRTPEEQAEDAEAQR
modifications: Streptococcus pyogenes
B7: SSAP_211: SEQ ID NO: 380; unclassified Streptomyces (protein, listed as Streptomyces sp.)
chain: SQIGNAIATRDEGPAAQIEVYRDEYAALVPSHVNADQWVRLAVGAIRGNDDLLKAAGNDIGLFLREMKTAARLGLEPGTEQFYLTPRKSKAHGGRPVIKGIVGYQGIVELIYRAGAASTVIVEAVRQNDVFRYVPGRDDRPVHEIDWFGQDRGPLVGVYAYAVMKDGAVSKVVVLNKARVMELKAKSDSKNSPYSPWNTNEEAMWLKSGVRQLAKWVPTSAEFRRDQLLAHTDTADGVIASVSAPPLPPQSAALEDLDPDDEGPIDGELLDD
B8: SSAP_172: SEQ ID NO: 341; Staphylococcus pettenkoferi (protein, listed as Staphylococcus pettenkoferi)
chain: ATQKDFKNQISQKETQQKQEVQKKKKGPRQQVSDLLDRMAPEIEKALPNHLSADRMARVAMTAVSSNPKLLECDPKSFIGAVMQSAQLGLEPNTALGEAYLVPYAGKVNFQLSYLGLINLATRSGQYKAIYAHEVYAEDEFRYQYGLHKDLIHKPVDNPKGKPIGYYAVYHLLNGGYDFVYWTTERIQKHAKKYSFAVQKGYQSPWNDEFDAMAKKTVLKDLLKYAPKSIEMNNAVRSDDKQSELSDEGVVIDVTNYDEENGEEK
B9: SSAP_20: SEQ ID NO: 189; CK3_26380 butyrate-producing bacterium SS3/4 (protein)
chain: ENATAVQQAESQGTQDFSAPVKHNTDFSLGIFGSSDNFLMATQMAKAFASSTIVPKEYQGNFANGLVAMDIANRLKTSPFMVMQNLDVIQGRPAWRATFLIAMINRSKKYDIELQFEEKRDKNGKPYSCTCWTTKDGRKVTGIEVTMDMAEAEGWTKKNGSKWITMPQVMLRYRAASFFSRMNCPELSNGLYTTDEVYEMADSEYKVYNLEDEVKRDLAQNANKEEFVAPPNETAPESESKGSEPLDPAVENQKSGDTPDWMKPETM
modifications: butyrate-producing bacterium SS3/4
B10: SSAP_184: SEQ ID NO: 353; Streptomyces scabiei (protein, listed as Streptomyces scabiei)
chain: DADRMARIALTLIRKNPDLATCSGESFLGALMTCSQLGFEPGSPTQEAFIVPYKGEATFQLGYQGMVTLFYQHPMASSVKVETVRENDYFEHEEGLEEKLVHRPCKTGPRGKAIAYYSVARLINGGRTFKVMYPAEIEERREKLPSKNSPAWRNSYDEMAKKTVLRNHFKALPKSAELARAMAHDGTVRTDWQPDAIDVPPEYLSEPQRPELGTGSTQ
B11: SSAP_191: SEQ ID NO: 360 in b312 (Table 9 prints 354); Microbacterium sp. K41 (protein, listed as Microbacterium sp.)
chain: SKDLSTAAAAAKSQPTMKDLVEAQLPAIERQLGGAMNSDAFVRAVLSEIGKSPDLMNADPKTLLGGVMLAAQLRLEIGSGLGEFYLTPRKDRGRQICLPIIGYQGMIKLALRSEYVLNVQAFLVREGDDFTYGGNSERGMFYDWTPKDFEESRPWIGVVATAKMRGGGTTWVYLTRTQVIDRRPSYWASTPWKTNEDEMVKKTAVRALAKFLPKSTDLGRALEADEAKVQHLKGVDEVQVTRLDDDAETFVVQEQDPMSRTPEEQAEDEANR

The molecules below were run on endogenous genome targets (ACTB, HSP90AA1) (assay: Arrayed SSAP library screening, mKate knock-in assay (editing efficiency)). Conditions: fold over negative control (Flag_HA); average of HSP90 and ACTB; 3 days after transfection.
Format: cell-based
Protocol: Arrayed SSAP library screening on endogenous genome targets (ACTB. HSP90AA1) using mKate knock-in assay.
SSAP-encoding plasmids were purified and quantified.
(§1) Each SSAP encoding plasmid was tested in duplicate, including a negative control (same plasmid encoding Flag_HA which is not expected to promote gene editing). Transfections were in 96-well plates and transfection efficiency was estimated to be 50%.
(§2) Three days after transfection, mKate positive cells and cell viability were quantified across all replicates, along with positive (original RecT SSAP) and negative (Flag-HA control protein) controls. […] At the same time, the cell viability was measured by live cell counts via flow cytometry, to help quantify the fitness effect of SSAP on mammalian cells.
(§3) SSAP proteins are identified by Uniparc deposit number and SEQ ID NO. Alignment numbers correspond to SSAPs in FIGS. 58, 59, and 60.

Compared with B1, B2 is higher in “Editing Efficiency (Normalized, Average, two targets)” value: 4.599 for the first, 6.484 for the second.

Going from B3 to B4, the “Editing Efficiency (Normalized, Average, two targets)” value falls from 4.674 to 3.832.

Compared with B5, B6 is higher in “Editing Efficiency (Normalized, Average, two targets)” value: 5.26 for the first, 5.372 for the second.

Going from B7 to B8, the “Editing Efficiency (Normalized, Average, two targets)” value falls from 5.517 to 4.239.

Compared with B9, B10 is lower in “Editing Efficiency (Normalized, Average, two targets)” value: 5.982 for the first, 5.689 for the second.

With B11 the “Editing Efficiency (Normalized, Average, two targets)” value was 4.75.

Same assay, conditions: percent of mKate knock-in; average of HSP90 and ACTB; 3 days after transfection

Compared with B1, B2 is higher in “Editing Efficiency (Absolute, Average, two targets)” value: 11.375 for the first, 16.05 for the second.

Going from B3 to B4, the “Editing Efficiency (Absolute, Average, two targets)” value falls from 11.55 to 9.4725.

Compared with B5, B6 is higher in “Editing Efficiency (Absolute, Average, two targets)” value: 13.025 for the first, 13.3 for the second.

Going from B7 to B8, the “Editing Efficiency (Absolute, Average, two targets)” value falls from 13.65 to 10.4925.

Going from B9 to B10, the “Editing Efficiency (Absolute, Average, two targets)” value falls from 14.85 to 14.075.

With B11 the “Editing Efficiency (Absolute, Average, two targets)” value was 11.75.

Each molecule was assayed on mammalian cells (assay: Arrayed SSAP library screening, cell viability by live cell counts via flow cytometry). Conditions: not given.
Format: cell-based
Protocol: as §1, §2, §3

Compared with B1, B2 is lower in “Cell Viability (Average, two targets)” value: 0.9152 for the first, 0.408 for the second.

First: B3
Second: B4
The “Cell Viability (Average, two targets)” value of the first is higher: 0.8787 for the first, 0.6836 for the second.

Compared with B5, B6 is higher in “Cell Viability (Average, two targets)” value: 1.044 for the first, 1.071 for the second.

Going from B7 to B8, the “Cell Viability (Average, two targets)” value rises from 0.3563 to 0.9046.

Compared with B9, B10 is lower in “Cell Viability (Average, two targets)” value: 1.174 for the first, 0.7361 for the second.

In the case of B11, the “Cell Viability (Average, two targets)” value is reported as 1.129.

These molecules were tested on gene editing with Cas9 (assay: Screen of 322 new SSAP proteins, gene editing activity with Cas9 (Table 5)). Conditions: not given.
Format: cell-based
Design: Cas9 with SSAP activity: scale not given here
Method in brief: (§4)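 The 322 SSAP proteins were found in sequence data and then synthesized. Each was screened for gene editing activity when paired with Cas9 and with dCas9.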

First: B7
Second: B8
The “Cas9 with SSAP activity” value of the first is higher: 2.771 for the first, −2.356 for the second.

Compared with B9, B10 is lower in “Cas9 with SSAP activity” value: −0.183 for the first, −0.836 for the second.

Same assay, conditions: normalized

First: B7
Second: B8
The “Cas9 with SSAP activity (normalized)” value of the first is higher: 4.679 for the first, −0.702 for the second.

Compared with B9, B10 is higher in “Cas9 with SSAP activity (normalized)” value: −0.399 for the first, −0.308 for the second.

These molecules were tested on gene editing with dCas9 (assay: Screen of 322 new SSAP proteins, gene editing activity with dCas9 (Table 5)). Conditions: not given.
Format: cell-based
Design: dCas9 with SSAP activity: scale not given here
Method in brief: as §4

Compared with B7, B8 is higher in “dCas9 with SSAP activity” value: −5.365 for the first, −5.287 for the second.

Compared with B9, B10 is higher in “dCas9 with SSAP activity” value: −4.179 for the first, −2.910 for the second.

Same assay, conditions: normalized

Going from B7 to B8, the “dCas9 with SSAP activity (normalized)” value rises from −0.904 to −0.724.

Compared with B9, B10 is higher in “dCas9 with SSAP activity (normalized)” value: −0.615 for the first, −0.482 for the second.

These molecules were tested on gene editing with Cas9 and dCas9 (assay: Screen of 322 new SSAP proteins, activity across all experiments (Cas9 and dCas9, Table 5)). Conditions: not given.
Format: cell-based
Design: scale not given here
Method in brief: as §4

Going from B7 to B8, the “Activity across all experiments” value falls from −1.297 to −3.822.

Compared with B9, B10 is higher in “Activity across all experiments” value: −2.181 for the first, −1.873 for the second.
